The source of these data is US20200299400A1 (published 2020).

For the experiment, the target named is T1, human GITR on cells (human, UniProt Q9Y5U5 26-241).
T1 chain: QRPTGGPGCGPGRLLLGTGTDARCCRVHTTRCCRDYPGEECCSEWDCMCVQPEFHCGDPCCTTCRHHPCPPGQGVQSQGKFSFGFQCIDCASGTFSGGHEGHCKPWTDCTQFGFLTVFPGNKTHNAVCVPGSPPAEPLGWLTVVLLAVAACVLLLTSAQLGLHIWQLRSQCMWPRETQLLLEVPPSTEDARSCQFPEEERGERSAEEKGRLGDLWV
Nature of the experiment: FACS binding to activated human CD4 T cells.

B1: anti-GITR-IgG2 (antibody)
heavy: QVQLVESGGGVVQPGRSLRLSCAASGFTFSSYGMHWVRQAPGKGLEWVAVIWYEGSNKYYADSVKGRFTISRDNSKNTLYLQMNSLRAEDTAVYYCARGGSMVRGDYYYGMDVWGQGTTVTVSSASTKGPSVFPLAPCSRSTSESTAALGCLVKDYFPEPVTVSWNSGALTSGVHTFPAVLQSSGLYSLSSVVTVPSSNFGTQTYTCNVDHKPSNTKVDKTVERKCCVECPPCPAPPVAGPSVFLFPPKPKDTLMISRTPEVTCVVVDVSHEDPEVQFNWYVDGVEVHNAKTKPREEQFNSTFRVVSVLTVVHQDWLNGKEYKCKVSNKGLPAPIEKTISKTKGQPREPQVYTLPPSREEMTKNQVSLTCLVKGFYPSDIAVEWESNGQPENNYKTTPPMLDSDGSFFLYSKLTVDKSRWQQGNVFSCSVMHEALHNHYTQKSLSLSPGK
light: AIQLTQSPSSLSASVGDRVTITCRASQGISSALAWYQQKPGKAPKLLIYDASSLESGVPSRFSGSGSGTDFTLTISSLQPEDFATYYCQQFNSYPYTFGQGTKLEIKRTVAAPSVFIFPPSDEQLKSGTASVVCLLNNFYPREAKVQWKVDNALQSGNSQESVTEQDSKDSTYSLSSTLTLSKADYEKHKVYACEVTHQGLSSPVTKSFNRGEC
Consider B1, for which the EC50 worked out at 0.277 nM.

B2: anti-GITR-IgG2-IgG1.1 (antibody)
heavy: QVQLVESGGGVVQPGRSLRLSCAASGFTFSSYGMHWVRQAPGKGLEWVAVIWYEGSNKYYADSVKGRFTISRDNSKNTLYLQMNSLRAEDTAVYYCARGGSMVRGDYYYGMDVWGQGTTVTVSSASTKGPSVFPLAPCSRSTSESTAALGCLVKDYFPEPVTVSWNSGALTSGVHTFPAVLQSSGLYSLSSVVTVPSSNFGTQTYTCNVDHKPSNTKVDKTVERKCCVECPPCPAPPVAGPSVFLFPPKPKDTLMISRTPEVTCVVVDVSHEDPEVKFNWYVDGVEVHNAKTKPREEQYNSTYRVVSVLTVLHQDWLNGKEYKCKVSNKALPSSIEKTISKAKGQPREPQVYTLPPSREEMTKNQVSLTCLVKGFYPSDIAVEWESNGQPENNYKTTPPVLDSDGSFFLYSKLTVDKSRWQQGNVFSCSVMHEALHNHYTQKSLSLSPG
light: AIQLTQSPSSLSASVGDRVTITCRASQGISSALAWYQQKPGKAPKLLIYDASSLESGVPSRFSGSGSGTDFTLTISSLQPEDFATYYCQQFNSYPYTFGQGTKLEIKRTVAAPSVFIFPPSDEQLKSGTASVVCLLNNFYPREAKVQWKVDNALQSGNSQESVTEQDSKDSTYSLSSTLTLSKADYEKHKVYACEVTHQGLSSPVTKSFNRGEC
B2: the response was half-maximal at 0.163 nM (EC50). This EC50 is about 1.7-fold lower than that of the molecule before.
